{"source": "the nanobody polyreactivity screen of Harvey et al. (2022)"}
{"test": "yeast display, Sf9 membrane polyspecificity reagent, FACS + sequencing; frameworks hold sequencing errors", "outline": "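After 36–48 hours of galactose induction, yeast (Saccharomyces cerevisiae BJ5465) displaying a synthetic nanobody library were stained at 4 °C for 1 hour with 10% biotinylated, detergent-solubilized Sf9 membrane reagent. Streptavidin microbeads enriched the stained cells before FACS sorting into low and high (top ~1%) gates on anti-HA and streptavidin fluorescence. Each clone's polyreactivity label reflects its gate of origin.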"}
{"sequence": "QVQLVESGGGLVQAGGSLRLSCAASGMIFVNAMGWYRQAPGKEREFVAAITYSTGSTYYADSVKGRFTISRDNAKNTVYLQMNSLKPEDTAVYYCAKDRSGHGTERDYWGQGTQVTVSS", "polyreactivity (PSR sort gate)": "low polyreactivity"}
{"sequence": "QVQLVESGGGLVQAGGSLRLSCAASGNAMGWYRQAPGKERELVAAITRRGGSTYYADSVKGRFTISRDNAKNTVYLQMNSLKPEDTAVYYCNADYAYYSYDYWGQGTQVTVSS", "polyreactivity (PSR sort gate)": "low polyreactivity"}
{"sequence": "QVQLVESGGGLVQAGGSLRLSCAASGNFFVLYAMGWYRQAPGKERELVASITSDGITYYADSGKGRFTISRDNAKNTVYLQMNSLKPEDTAVYYCAVDRSYRYLPRGDYWGQGTQVTVSS", "polyreactivity (PSR sort gate)": "low polyreactivity"}
{"sequence": "QVQLVESGGGLVQAGGSLRLSCAASGNIFAPNAMGWYRQAPGKERELVAAISRSGGSTHYADSVKGRFTISRDNAKNTVYLQMNSLKPEDTAVYYCAAGWYGRYTSKMGYWGQGTQVTVSS", "polyreactivity (PSR sort gate)": "high polyreactivity"}
{"sequence": "QVQLVESGGGLVQAGGSLRLSCAASGNIFAYYAMGWYRQAPGKERELVAAITDSGGNTFYADSVKGRFTISRDNAKNTVYLQMNSLKPEDTAVYYCAVRHRYTRAYWGRDYWGQGTQVTVSS", "polyreactivity (PSR sort gate)": "low polyreactivity"}
{"sequence": "QVQLVESGGGLVQAGGSLRLSCAASGNIFDEYTMGWYRQAPGKEREFVAGISDDGDTSYADSVKGRFTISRDNAKNTVYLQMNSLKPEDTAVYYCNADDLSYYESYWGFLYDYWGQGTQVTVSS", "polyreactivity (PSR sort gate)": "low polyreactivity"}
{"sequence": "QVQLVESGGGLVQAGGSLRLSCAASGNIFDGYAMGWYRQAPGKEREMVAAITSSAGSTYYADSVKGRFTISRDNAKNTVYLQMNSLKPEDTAVYYCNKVTKYRPIEGSWGQGTQVTVSS", "polyreactivity (PSR sort gate)": "high polyreactivity"}
{"sequence": "QVQLVESGGGLVQAGGSLRLSCAASGNIFDIYAMGRYRQAPGKERELVAAISSGGSTYYADSVKGRFTISRDNAKNTVYLQMNSLKPEDTAVYYCAESRVGYYRYEYWGQGTQVTVSS", "polyreactivity (PSR sort gate)": "low polyreactivity"}
{"sequence": "QVQLVESGGGLVQAGGSLRLSCAASGNIFDIYAMGWYRPAPGTERELVAAISSGGSTYYADSVKGRFTISRDNAKNTVYLQMNSLKPEDTAVYYCAESRVGYYRYEYWGQGTQVTVSS", "polyreactivity (PSR sort gate)": "low polyreactivity"}
{"sequence": "QVQLVESGGGLVQAGGSLRLSCAASGNIFDRYAMGWYRQAPGKERELVAGITWSGGSTYYADSVKGRFTISRDNAKNTVYLQMNSLKPEDTAVYYCGQANYYWGQGSQVTVSS", "polyreactivity (PSR sort gate)": "low polyreactivity"}
{"sequence": "QVQLVESGGGLVQAGGSLRLSCAASGNIFDRYVMGWYRQAPVKERELVAAISVSGGSTYYADSVKGRFTISRDNEKNSVYLQMNCLKPEDTAVYYCAAHSRLINWYDYWGQGTQVTVSS", "polyreactivity (PSR sort gate)": "high polyreactivity"}
{"sequence": "QVQLVESGGGLVQAGGSLRLSCAASGNIFFIYAMGWYRQAPGKERELVAAITSTGSTYYADSVKGRFTISRDNAKNTVYLQMNSLKPEDTAVYYCAALLQRRFAYDYWGQGTQVTVSS", "polyreactivity (PSR sort gate)": "low polyreactivity"}
{"sequence": "QVQLVESGGGLVQAGGSLRLSCAASGNIFFTYAMGWYRQAPGKERELVAAITSGGRTYYADSVKGRFTISRENPKNTFYLQMNSLKPEDTAVYYCASYYKYLGYGYWGQGTQVTVSS", "polyreactivity (PSR sort gate)": "high polyreactivity"}
{"sequence": "QVQLVESGGGLVQAGGSLRLSCAASGNIFFVYAMGWYRQAPGKERELVATITWRGDSTNYADSVKGRFTISRDNAKNTVYLQMNSLKPEDTAVYYCNAEDSYYTFEGDSWGQGTQVTVSS", "polyreactivity (PSR sort gate)": "low polyreactivity"}
{"sequence": "QVQLVESGGGLVQAGGSLRLSCAASGNIFGEYAMGWYRQAPGKERELVATISSGGDTYYADSVKGRFTISRDNAKNTVYLQMNSLKPEDTAVYYCAVVDTLYESKYDYWGQGTQVTVSS", "polyreactivity (PSR sort gate)": "low polyreactivity"}
{"sequence": "QVQLVESGGGLVQAGGSLRLSCAASGNIFGFYTMGWYRQAPGKERELVAAIRSRGGSTNYADSVKGRFTISRDNAKNTVYLQMNSLTPEDTAVYYCNKDGTWLARAVTYADFDYWGQGTQVTVSS", "polyreactivity (PSR sort gate)": "low polyreactivity"}
{"sequence": "QVQLVESGGGLVQAGGSLRLSCAASGNIFGGNAMGWYRQAPGKERELVAAITRGGSTYYADSVKGRFTISRDNAKNTVYLQMNSLTPEDTAVYYCAAQLFKWKNRQSLWFDHGYYWGQGTQLTVSS", "polyreactivity (PSR sort gate)": "low polyreactivity"}
{"sequence": "QVQLVESGGGLVQAGGSLRLSCAASGNIFGGYAMGWYRQAPGKERELVATIRDRGGSTYYADSVKGRFTISRDNAKNSVYLQMNSLKPEDTAVYYCNPRFRTYRLTMEYWGQGTQVTVSS", "polyreactivity (PSR sort gate)": "high polyreactivity"}
{"sequence": "QVQLVESGGGLVQAGGSLRLSCAASGNIFGNNAMGWYRPEPGKERELVAAISSSGTSTYYADSVKGRFTISLDNAKNTVYLQMNSLKPEDTAVYYCNADPLPYDGYYDYDYWGQGTQVTVSS", "polyreactivity (PSR sort gate)": "low polyreactivity"}
{"sequence": "QVQLVESGGGLVQAGGSLRLSCAASGNIFGNNAMGWYRQAPGKERELVAAISSSGTSTYYADSVKGRFTISRDNAKNTVYFQMNSLKPEDTAVYYCNADPLPYDGYYDYDYWGQGTQVTVSS", "polyreactivity (PSR sort gate)": "low polyreactivity"}
{"sequence": "QVQLVESGGGLVQAGGSLRLSCAASGNIFGPNAMGWYRQAPGKESELVAAISISGSTYYADSVKGRFTISRDNAKNTVYLQRNSLNPEDTAVYYCAADYDSDYSWKYNYWGQGTQVTVSS", "polyreactivity (PSR sort gate)": "low polyreactivity"}
{"sequence": "QVQLVESGGGLVQAGGSLRLSCAASGNIFGRYAMGWYRQAPGKARELVAAISGSGGRTYYADSVKGRFTISRYNAKKTVYLQMNSLKPEDTAVYYCAKVFALRGYDYWGQGTQVTVSS", "polyreactivity (PSR sort gate)": "high polyreactivity"}
{"sequence": "QVQLVESGGGLVQAGGSLRLSCAASGNIFGSNAMGWYRQAPGKERELVAAISGSNGGTYYADSVKGRFTISRDNAKNTVYLQMNSLKPEDTAVYYCNADFFSRWGYRYMDYWGQGTQVTVSS", "polyreactivity (PSR sort gate)": "low polyreactivity"}
{"sequence": "QVQLVESGGGLVQAGGSLRLSCAASGNIFIYNAMGWYRQAPGKERELVASITYSGDSTYYADSVKGRFTISRDNAKNTVYLQMNSLKPEDTAVYFCAAQGYGWWYDYWGQGSQVTVSS", "polyreactivity (PSR sort gate)": "low polyreactivity"}
{"sequence": "QVQLVESGGGLVQAGGSLRLSCAASGNIFKGYAMGWYRQAPGKERELVAAISKSGGSTYYADSVKGRFTISRDNAKNTVYLQMNSLKPDDTAVYYCNTYTYAGYNYWGQGTQVTVSS", "polyreactivity (PSR sort gate)": "high polyreactivity"}
{"sequence": "QVQLVESGGGLVQAGGSLRLSCAASGNIFKVYVMGGSRQAPGKERELVAAISGSGGSTYYADSVKGRFTISRDNAKTTVYLQMNSLKPEDTSVYYCNKVFKVTAARSFGYWGQGTQVTVSS", "polyreactivity (PSR sort gate)": "low polyreactivity"}
{"sequence": "QVQLVESGGGLVQAGGSLRLSCAASGNIFLFYVMGWYRQAPGKERELVAAITLSGTNTYYADSVKGRFTISRDNAKNTVYLQMNSLKPEDTAVYYCNADWWSDGYDYWGQGTQVTVSS", "polyreactivity (PSR sort gate)": "low polyreactivity"}
{"sequence": "QVQLVESGGGLVQAGGSLRLSCAASGNIFLSYAIGCYRQAPGKEREFVPAIRWSGASTYYADSVKGRFTISRDNAKNTVELQMNSLKPEDTAVYYCGRRALCPRRGIRYDYWGQGSQVTVSS", "polyreactivity (PSR sort gate)": "high polyreactivity"}
{"sequence": "QVQLVESGGGLVQAGGSLRLSCAASGNIFLYYDMGWYRQAPGKERELVADIDSSGASTYYADSVKGRFTISRDNAKNTVYLQMNSLKPEDTAVYYCAAELHWWYAGYEYGYWGQGTQVTVSS", "polyreactivity (PSR sort gate)": "low polyreactivity"}
{"sequence": "QVQLVESGGGLVQAGGSLRLSCAASGNIFPAYVMGWYRQAPGKERELVAAITDSDGSTFYADSVKGRFTISRDNAKNTVYLQMNSLKPEDTAVYYCAAYSYRQGWGFGYWGQGTQVTVSS", "polyreactivity (PSR sort gate)": "low polyreactivity"}
{"sequence": "QVQLVESGGGLVQAGGSLRLSCAASGNIFPRNAMGWYRQAPGKERELVAAISASGDNTYYADSVKGRFTISRDNAKNTVYLQMNSLKPEDTAVYYCAAGTFYESIQPYESVAYDYWGQGTQVTVSS", "polyreactivity (PSR sort gate)": "low polyreactivity"}
{"sequence": "QVQLVESGGGLVQAGGSLRLSCAASGNIFPYYAMGWYRQAPGKERELVAAISGSGDRTYYADSVKGRFTIARDNAKNTVYLQMNSLKPEDTAVYYCAASRRYYGWYEYWGQGSQVTVSS", "polyreactivity (PSR sort gate)": "high polyreactivity"}
{"sequence": "QVQLVESGGGLVQAGGSLRLSCAASGNIFPYYAMGWYRQAPGKERELVASISRSGGSTYYADSVKGRFTISRDNAKNTVYLQMNSLKPEDTAVYYCAKRTPYYGFGFFHPARGYGYWGQGTQVTVSS", "polyreactivity (PSR sort gate)": "low polyreactivity"}
{"sequence": "QVQLVESGGGLVQAGGSLRLSCAASGNIFQKYAMGWYRQAPGKERELVAAIRRGDRTYADSVKGRFTISRDNAKNTVYLQMNSLKPEDTAVYYCNTAGASYFTAGYGYWGQGTQVTVSS", "polyreactivity (PSR sort gate)": "low polyreactivity"}
{"sequence": "QVQLVESGGGLVQAGGSLRLSCAASGNIFSAYAMGWYRQAPGKERELVAAITNGGRTNYADSVKGRFSISRDNAKNTVYLQMNSLKPEDTAVYYCAVASTILGKRTYYYWGQGTQVTVSS", "polyreactivity (PSR sort gate)": "low polyreactivity"}
{"sequence": "QVQLVESGGGLVQAGGSLRLSCAASGNIFSDNAMGWYIQAPGKERELVAAITSGGSTNYADSVKGRFTISLDNAKNTVYLQMISLKPEDNAVYYCAADISYRHFLFDYWGQGTQVTVSS", "polyreactivity (PSR sort gate)": "low polyreactivity"}
{"sequence": "QVQLVESGGGLVQAGGSLRLSCAASGNIFSLNGMGWYRQAPGKEREFVAAITWSVGSTSSADSVKGRFTISRDNAKNTVYLQMNSLKPEDTAVYYGAATVSDLYKHEYYYWGQGTQVTVSS", "polyreactivity (PSR sort gate)": "low polyreactivity"}
{"sequence": "QVQLVESGGGLVQAGGSLRLSCAASGNIFSPYAMGWYRPAPGKERELVAAISSGDSTYYADSVKGRFTISRDNAKNTVYLQMNSLKPEDTAVYYCAADANYSNYQYYEFDYWGQGTQVTVSS", "polyreactivity (PSR sort gate)": "low polyreactivity"}
{"sequence": "QVQLVESGGGLVQAGGSLRLSCAASGNIFSRYAMGWYREPRGKERELVAAISSSGGTTYYADSVKGRFTISRDNAKNTVYLQMNSLKPEDTAVYYCNARRRQIYSEFGYWGQGTQVTVSS", "polyreactivity (PSR sort gate)": "high polyreactivity"}
{"sequence": "QVQLVESGGGLVQAGGSLRLSCAASGNIFSTYAMGWYRQAPGKERELVASISENGGSTYYADSVKGRFTISRDNAKNTVYLQMNSLKPEDTAVYYCNADAYVYFDDGDYWGQGTQVTVSS", "polyreactivity (PSR sort gate)": "low polyreactivity"}
{"sequence": "QVQLVESGGGLVQAGGSLRLSCAASGNIFTSNAMGWYRQAPGKERELVAAITSGGSTYYADSLKGRFTISRDNAKNTVYLQMISLKPEDTAVYYCATLRRPHLRPYYYWGQGTQVTVSS", "polyreactivity (PSR sort gate)": "high polyreactivity"}
{"sequence": "QVQLVESGGGLVQAGGSLRLSCAASGNIFTTYAMGWYRQAPGKERELVAAISRSGGRTNYADSVKGRFTISRDNAKNTVYLQLNSLKPEDTAVYYCAADGVPGRAVDYEYWGQGTQVTVSS", "polyreactivity (PSR sort gate)": "high polyreactivity"}
{"sequence": "QVQLVESGGGLVQAGGSLRLSCAASGNIFVAYAMGWYRQAPGKEREMVAAISSRGGRTYYADSVKGRFTISRDNAKNTVYLQMNSLKPEDTAVYYCATDVGYYRKYEYYYWGQGTQVTVSS", "polyreactivity (PSR sort gate)": "high polyreactivity"}
